{
  "source": "the DeepSol protein solubility set",
  "data": [
    {"assay": "soluble on expression in E. coli; label from the status in PepcDB or PDB records", "values": [
      {"sequence": "GPGSAEKKQKQHFYLTQEMPPRRDPERQRAKVAAATMAPSEHKKASLPPAKLRLNLGPFLPQKKKNRPPKTTEIDWGSEQTPRLQCSWHPQRRNGIVSFPVMMSYPVSCHCAAWGCHITRAYPTMTRQGAHRLASPKVGRPRRSTRKPDQK", "soluble on expression in E. coli": "soluble"},
      {"sequence": "MSLGRVTITAVAREAGVSAITVSRYFNQPEQVSPELRERIAAVVNALGYVPNLVAGGLASARSRVVAMVIPNISGPIFANTIQGFSDTLSQHGFQLLLASSYFSAEQEESAVRAFLGWSPAALVLTSRFHSPATEKMIEQTDVPVIETWDHQPERSPIQIGFSHYDVGVTAARYLYDKGYRRIAFVQNSIAGDFSALERRDGYIATLEGLGIKPWVFVPDAGRAPFEAGKQAMETLMSQTPRPDAIFFANDNLAAGALLASQRAGLHIPKDCAVMGFGDYAFAEMMLPSLTTIKPPALEIGVLAATRVLESLGVLPVEGDIQRLNLLECRLVERESTEGHHHHHH", "soluble on expression in E. coli": "soluble"},
      {"sequence": "MSLKIVIIGGVAGGMSAATRLRRLMEDAEIVVMEKGPFVSFANCGLPYYVSGEIAEREQLLVQTPEALKARFNLDVRPHHEVVAIDPIEKVITVKHETEILTEHYDKLILSPGAKPFVPPITGLAEAKNVFSLRNVPDLDQIMTALTPETKRAVVIGAGFIGLEMAENLQKRGLEVTLVEKAPHVLPPLDEEMAAFVKAELSKNNVQVITGQSAVAFEEEGQVIRLEDGQTLASDLTILSVGVQPENTLAVEAGVATGLRGGIVVDEHYQTNQPDIYAVGDAIVVKQQITQEDALISLASPANRQGRQVADVIAGLERKNQGSIGTAIVRVFDLTAASTGLSERAAKAAGLTTAVVHISGKDHAGYYPGATDLQLKLVFHPTTGEIYGAQGIGAKGVDKRIDILATAIKGQLTIFDLPELEFTYAPPFGSAKDPVNMLGYAAMNLVEGLSENVQWYELSNELANGAVLLDVRNPAERANGQFKNAVSIPLNELRERLEELDKSTEYIVSCHSGLRSYIAERMLKQAGISAKNLDGAFALYRMVKPEELENEGHHHHHH", "soluble on expression in E. coli": "soluble"},
      {"sequence": "MGSDKIHHHHHHMFTMICPVCEKSVNDMQGLALHFRSGSIHGDGKHASWISAEQIEHGISDSDLSDVLIRIFRPEESLIRWARMEFIAKFYAHPHPFMEAMQKPTVPVLLGYVIEHRFFLKNWIRTLSMVIHSTTSDDAFEYEVENVATEYIGLNGKPSHLELLLRMGEALGMSRKRIMEYSPLPETSQAIEVWYGISNRYSWIDTMGAMHVLELVADRTLVDDGSPIHYFNPEILKGSDYPEAVKNFLMEGYEADVGHAGEALKIVQAATMDDLTTRSIMLRSMDAFYVYLNARMRRARMLEASWGE", "soluble on expression in E. coli": "not soluble"},
      {"sequence": "MKIAKFTRINAHQVQNCNNEKIAHERKMEKVFEFLAEDKKTFEASNSFERTLIFCKHDKSAMAALLTLYDSKTIFGTFSEYLITNDKTVLERERVQVNNGEKMLAICNMDFMDDFQLGLAKHYIFLDFPLKIIGIKKMLDRLNTMAQQSEQVIDIDFLTTNMDARIYQEALNMEMTMRGSQVPKWLTELVNGSSELPEDPDVIFVRTCKPDLEPLTAKPAKLPSPRQPESKPSNEASSSQLEPTSASQPPSRVDQILKSRSGLPTKDADSSSEVAPRKRKPKSPAFDIYNMKRQPDGTFLIPSHVMGFCNEDLSEDDEEPDPEYDSEEEYNWMYKLDVW", "soluble on expression in E. coli": "not soluble"},
      {"sequence": "MGSDKIHHHHHHMLIFQCHGDRCLSSNLQEHFTDLKKLVNGKSLLMGEKNVQKRLIRLGQILRVFLDKDRVSSIWLSRNFQITPRTIQRDLAALKESGFPIHEIQKGVYRLGKDLIKNLEVFDETELALVITLRNVVGQLGRPFQKAADGLFNSLYDAASSMPVYVRMDESIPLDSSLLNRIVKSIRLKKIAGFYYKSGKPHQVNMEPYRVVHFGGFWYLVGKDTGDSVIKRYALDRISDFKMARTPFRKIPENLDSAIQGSANIWFSTDQNLVVKISVDASSSGYFKRRKVFPTQEITEEREDGSLIVTFRVGRYEAIQDILKSWLPHITILEPAEFRDAFLADMKKWVQRQEQVGS", "soluble on expression in E. coli": "not soluble"},
      {"sequence": "MDPELLRQRTAFQKHAATTMAVQNKPTTAPNSHTTYSSEAAKAKKKKSSGPAQNLSKLPDFNNSVSNANALSNATNFSTMAKIVDYMKKRHLNNQQWPLTLQEILDELQIFDLSKRSLAFLQEALPNNPRLIMESEKFAFRPPYKIKGKTSLVAVARKHYQDGKGGILVSDLAECVANYDALLQQVSSEVIVVPTQVNKKKDRVVFYNDKEFTFPELEDDFKALWRHVSVDHLDEKKIEEYLQKKGLDAMKDLTPKVRMQAPLKRKAAKRRFNQKVQNEHMDGVLEDYE", "soluble on expression in E. coli": "soluble"},
      {"sequence": "VGLIEKQKVQDSDFIEHKEVGLLISHDGIYFKFEPEQLAKHLVEFKSEQDQLIFGGVVQNSDYFFMVTSLGNIITVPIYKTLSNTKTKMNELLAKKPILMEDEKLVLAGIVNPDKME", "soluble on expression in E. coli": "soluble"},
      {"sequence": "MGSDKIHHHHHHMNNKPVVGISGCLTGATVRFDGGHKRMDFVMNSLAPWVAYKPICPEVAIGLPVPRPALRLIQTTCGDIRMRYSHAPHDDVTERMNAFADRFLPTIGELAGFIVCAKSPSCGMERVRLYDEKGNRGRKAGTGLFTAAMMDKYPWLPIEEDGRLHDPVLRENFIARIFALHELNALRAQGLSRHSLLAFHSRYKLQLLAHHQAGYREIGPFVARLHEWDDLDAFFVRYREKLMAILRHPASRKNHTNVLMHIQGYFHRALNSRQRAELREVILGYRAGRLPILAPLTLLKHYLAEHPDDYLRSQNYFEPYPDTLGLRLAIT", "soluble on expression in E. coli": "not soluble"},
      {"sequence": "GMDISGRDVETRLTLAREFMSGVDELPTVPDIVLRIAGKLNDPDVAIDEVADLLLQDQVLTARVVHLANSPLYSAARPISSIRDAVIYLGLDLLREAIFTCAIVDLFKTGKGPLNRSTLWAHSLGVARIAKLIAERTGFLNPVNVYVAGLLHDVGEVFINFFRGKEFSQVVTLVDEEKITFGQAEERLFGTSHCEVGFALAKRWSLNEFICDTILYHHDIEAVPYKQAAIVAMVAFADEYCTLRRLGFEGHKPVDSVRTLLENHPSWGVIRRSLGGSDFDEKLIVAELDSSIVEIRAAVDELFLL", "soluble on expression in E. coli": "soluble"},
      {"sequence": "MAAIDAALKAGEKILSIYEDPKSDFEIERKADNSPLTIADRKAHEAIVAILNETPFPVLSEEGKHMDYAVRRGWDTLWIVDPLDGTKEFIKRNGEFTVNIALVQNAVPVMGVIYVPVKKELYFAVEGTGAYKCSGIVGLEDEGVTLQQMIEKSERMPLADARDHFIAVASRSHLTPETETYIADLKKKHGNVELISSGSSIKICLVAEGKADVYPRFAPTMEWDTAAGHAIARAAGMEVYQAGKEEPLRYNKEDLLNPWFIVEAKRER", "soluble on expression in E. coli": "soluble"},
      {"sequence": "MAKVIFDENRCKGCKLCTTVCPKKIVVMNEDKLNQKGFHPAGVVDMDKCIGCAFCATICPDCVIEVYK", "soluble on expression in E. coli": "not soluble"},
      {"sequence": "MVSSSVARGLEDAGLKRFVPAFSGVSDQAFLGLMMSDYASYGVVELEDKQRLFRLIKSIAASVKSSDAPAPALEKPNALIDLDENDGDLLADAGVNFQLSPLANQNPKAPVPSGGGGVPPSEGEDPPKIRVVVRKRPISKKERERGDDDVVDVLAKNNTVVVNEEKVKVDLTKYLEKHAFKFDESLDENVSNEAVYQLTVGPLVRTLFRNGRASCFAYGQTGSGKTYTMSPLPIRASADIFTFMAQQQYRDISLCVSCFEIYGNKVFDLLNARKKLNILEDGKKKVVVVGLKEFGVDDVDGVKALIEESAKNRSTGSTAANADSSRSHSIMQFALKRAAPAPAGGFRRGEDAPEPRVVGKISFIDLAGSERGADTFDNNRQTRLEGAEINKSLLALKECIRALDSDARHVPFRGSKLTAVLRDSFVGDQARTVMIANISPCSSSVEHTLNTLRYADRVKELRKDKADRTPGGVTPGDDAYYAAVARAAGPGQAAAPAPERERERADLQRERDRERASDRYPSPPRQQAGAFAGGGGGGAGADGEGSAAALAERHDELMDSILLEEENLVAFHRAKLEEDMETMRQEMALLQEVDKPGSEIDHYVEQMSALLNIKRQGIQELQAKLDTFKAKLREEEALSRTVHKIRT", "soluble on expression in E. coli": "not soluble"},
      {"sequence": "MGSDKIHHHHHHMSAEEQINQFKKFCAAIISFDEEEWQAMEKCLRIKFLSKDDYFLRQGKTCSRMGFVCKGYTRLFFLIDGEEHTKDFCFENTFTGSLASFLVRKPAAFNVVAMEDTYMLTIEYNALMELYKNYMCWNTFGRIVVEQFAIRKENREVTFLLNTPEKRYEEVSDQYPHLLQRAPLKMIASYLNMTPETLSRIRSKKTK", "soluble on expression in E. coli": "not soluble"},
      {"sequence": "MTQSNPFQQYGITSGLAAAAAAKASVLAAMGTISDYVGVPTPIGLRIEVKVEMMKQIDARSGIAAVRKFSGDNPDTLNGALFESRAVIRDDGLINIFAGEGIGVAVSDGLPVRRGDPAINPVARMMIENAVREVSGSAGFDVYISVPGGEDLARDTMNPRVGISGGISILGTTGIEEPVSGPDYEAHIEYLLQTGRCVSTVAVMCPGNTAMRFAESYLRLHPASFILTGDRIGSAIEMAIEKGYREIVVFGLPGKLVKMAAGVMNTHSRIADARFETIAAYAALNGADRDTISKILSSNTVESAFAVLRSIGLLDSVAGAIASRIVERLRSPVWQIRRILLRHDRFRRQAIRVSPVAGHIETGE", "soluble on expression in E. coli": "not soluble"},
      {"sequence": "MAKEINLTGEEVVALAAKYMNETDAAFVKKALDYATAAHFYQVRKSGEPYIVHPIQVAGILADLHLDAVTVACGFLHDVVEDTDITLDNIEFDFGKDVRDIVDGVTKLGKVEYKSHEEQLAENHRKMLMAMSKDIRVILVKLADRLHNMRTLKHLRKDKQERISRETMEIYAPLAHRLGISRIKWELEDLAFRYLNETEFYKISHMMNEKRREREALVDDIVTKIKSYTTEQGLFGDVYGRPKHIYSIYRKMRDKKKRFDQIFDLIAIRCVMETQSDVYAMVGYIHELWRPMPGRFKDYIAAPKANGYQSIHTTVYGPKGPIEIQIRTKEMHQVAEYGVAAHWAYKKGVRGKVNQAEQKVGMNWIKELVELQDASNGDAVDFVDSLEHHHHHH", "soluble on expression in E. coli": "soluble"},
      {"sequence": "GMIEKVYEFKRDAKTKVVEKLVNTEHVQINHIVLPRGEQMPKHYSNSYVHLIIIKGEMTLTLEDQEPHNYKEGNIVYVPFNVKMLIQNINSDILEFFVVKAPHPKKLNAPEDPIKCE", "soluble on expression in E. coli": "soluble"}
    ]}
  ]
}
